Experimental findings from paper PMC5105068 are described below.

This assay has as its target soluble γc protein (sγc), recombinant murine (mouse). Put plainly: immunoprecipitation and immunoblot, SDS-PAGE under reducing and non-reducing conditions; culture supernatant of sγc expressing 293 T cells immunoprecipitated and immunoblotted with anti-γc ectodomain antibodies; resolved with (+ DTT) or without reduction. For orientation: Immunoblotting shows a protein as a band on a membrane.

As usually defined, the stoichiometry N is the number of molecules, sites or subunits per partner or assembly.

As for “soluble γc protein (sγc), recombinant murine (natural protein)”, the stoichiometry N worked out at 2.
